Patent US12416034B2, “Recombinant production of steviol glycosides” (EVOLVA SA, priority 2011, dated 2025)

What was measured:
[1] = Denaturation temperature by differential scanning calorimetry (DSC); type: physicochemical; conditions: 6HIS-purified enzymes, 91D2e-b GST-purified
Method: To assess the thermal stability of EUGT11 and to compare it with the other UGTs in the steviol glycosylation pathway, denaturation temperatures of the proteins were determined using differential scanning calorimetry (DSC). Use of DSC thermograms to estimate denaturation temperatures, TD, is described, for example, by E. Freire in Methods in Molecular Biology 1995, Vol. 40 191-218. DSC was performed (using 6HIS-purified EUGT11, yielding an apparent TD of 39° C.; while when GST-purified 91D2e-b was used, the measured TD was 79° C. For reference, the measured TD when using 6HIS-purified UGT74G1, UGT76G1 and UGT85C2 was 86° C. in all cases. One of skill in the art will recognize that enzyme immobilization or addition of thermal protectants can be added to the reactions to improve stability of the protein. Non-limiting examples of thermal protectants include trehalose, glycerol, ammonium sulphate, betaine, trimethylamine oxide, and proteins.

[2] = Enzyme kinetics with UDP-glucose as substrate; type: biochemical
Method: A series of experiments were performed to determine kinetic parameters of EUGT11 and 91D2e-b. For both enzymes, 100 μM RebA, 300 μM UDP-glucose, and 10 U/mL Alkaline Phosphatase (Fermentas/Thermo Fisher, Waltham, MA) were used in the reactions. For EUGT11, the reactions were performed at 37° C. using 100 mM Tris-HCl, pH 7, and 2% enzyme. For 91D2e-b, the reactions were performed at 30° C. using 20 mM Hepes-NaOH, pH 7.6, 20% (by volume) enzyme. The initial velocities (V0) were calculated in the linear range of a product versus time plot.
Vmax and KM parameters were determined from the curve-fit Lineweaver-Burk data, calculated from the x- and y intercepts (x=0, y=1/Vmax) and (y=0, x=−1/KM). Additionally, the same parameters also were calculated by a non-linear least squares regression, using the SOLVER function in Excel. The results obtained with both methods for EUGT11 and RebA are presented in Table 12, along with all the kinetic parameters of this example. Kcat is calculated based on Vmax divided by the approximate amount of protein in the assay.
In order to investigate the influence of UDP-glucose concentration in the glycosylation reaction, as well as the affinity of EUGT11 for UDP-glucose, similar kinetics analysis were performed. EUGT11 was incubated with increasing amounts of UDP-glucose (20 μM, 50 μM, 100 μM, and 200 μM), maintaining an excess of RebA (500 μM).
In the case of UGT91D2e-b, RebA concentrations assayed were 50 μM, 100 μM, 200 μM, 300 μM, 400 μM and 500 μM. Concentration of UDP-glucose was always three times the concentration of RebA and incubation was performed at 30° C., in the reaction conditions described above for UGT91D2e-b. Additionally, kinetic parameters of UGT91D2e-b towards UDP-glucose were determined. UGT91D2e-b was incubated with increasing amounts of UDP-glucose (30 μM, 50 μM, 100 μM, and 200 μM), maintaining an excess of RebA (1500 μM). incubation was performed at 30° C., in optimal conditions for UGT91D2e-b.

[3] = In vitro transcribed and translated UGTs incubated with RebA and UDP-glucose, LC-MS; type: biochemical
Method: In vitro transcription and translation of these genes was performed, and the resulting UGTs incubated with RebA and UDP-glucose. Following incubation, the reactions were analyzed by LC-MS. […] See LC-MS chromatograms in FIG. 4. As shown in the left panel of FIG. 4, UGT91D2e produced a trace amount of RebD when RebA was used as the feedstock.
(§1) EUGT11 was produced by in vitro transcription and translation, and incubated with various substrates in the RebD pathway. Similar experiments were carried out using in vitro transcribed and translated UGT91D2e. […] Compounds 1-3 were identified solely by mass and expected retention time. The numbers shown in FIG. 3 are the average peak height of the indicated steviol glycoside obtained from a LC-MS chromatogram, and, although not quantitative, can be used to compare the activity of the two enzymes. […] Both enzymes were able to convert steviol 19-O-monoglucoside (SMG) to compound 1, with EUGT11 being about ten times more efficient than UGT91D2e at converting 19-SMG to compound 1.
Both enzymes were able to convert RebA to RebD. However, EUGT11 was approximately 30 times better at converting RebA to RebD. Overall, it appears that EUGT11 produces more product than UGT91D2e in all reactions (with similar time, concentrations, temperature, and purity of enzyme) except the conversion of rubusoside to stevioside.

[4] = In vitro transcribed and translated UGTs incubated with 19-SMG, LC-MS; type: biochemical; conditions: average LC-MS peak height, not quantitative
Method: as §1

[5] = Limiting factor in RebA to RebD reaction; type: biochemical
Method: Under the conditions described above for EUGT11, approximately 25% of the RebA administered was converted to RebD. The limiting factor in these conditions could be either the enzyme, UDP-glucose or RebA. Experiments were set up to distinguish between these possibilities. A standard assay was allowed to run its course during 4 hours. This was followed by addition of either extra RebA substrate, extra enzyme, extra UDP-glucose or extra enzyme and UDP-glucose.
Experiments were conducted to examine the limit to this benefit of adding bolus amounts of UDP-glucose and fresh enzyme in the conversion of RebA to RebD reaction. Additional enzyme or enzyme and UDP-glucose were added after 1, 6, 24 and 28 hours. In the case of the addition of both extra EUGT11 and UDP-glucose, a conversion of more than 70% was achieved. […] Alternatively, as explained below, EUGT11 may be metabolizing the UDP-glucose.

[6] = Stability of EUGT11: pre-incubation before RebA to RebD reaction; type: physicochemical
Method: Reactions were conducted to explore the stability of EUGT11 under various RebA to RebD reaction conditions. Omitting the substrate from the reaction mixture, EUGT11 was pre-incubated for various periods of time before substrate was added. Following a pre-incubation of the enzyme in 100 mM Tris-HCl buffer, substrate (100 μM RebA) and other reaction components (300 μM UDP-glucose, and 10 U/mL Alkaline Phosphatase (Fermentas/Thermo Fisher, Waltham, MA)) were added (0, 1, 4 or 24 hours after the incubation was started). The reaction was then allowed to proceed for 20 h, after which the reactions were stopped and RebD product-formation measured. Experiments were repeated at different temperatures: 30° C., 32.7° C., 35.8° C. and 37° C.

[7] = In vitro transcribed and translated UGTs incubated with steviol, LC-MS; type: biochemical
Method: as §1

B1: EUGT11: UDP glycosyl transferase from Oryza sativa (GenBank AC133334), SEQ ID NO:152 (protein, listed as Oryza sativa)
chain: MDSGYSSSYAAAAGMHVVICPWLAFGHLLPCLDLAQRLASRGHRVSFVSTPRNISRLPPVRPALAPLVAFVALPLPRVEGLPDGAESTNDVPHDRPDMVELHRRAFDGLAAPFSEFLGTACADWVIVDVFHHWAAAAALEHKVPCAMMLLGSAHMIASIADRRLERAETESPAAAGQGRPAAAPTFEVARMKLIRTKGSSGMSLAERFSLTLSRSSLVVGRSCVEFEPETVPLLSTLRGKPITFLGLMPPLHEGRREDGEDATVRWLDAQPAKSVVYVALGSEVPLGVEKVHELALGLELAGTRFLWALRKPTGVSDADLLPAGFEERTRGRGVVATRWVPQMSILAHAAVGAFLTHCGWNSTIEGLMFGHPLIMLPIFGDQGPNARLIEAKNAGLQVARNDGDGSFDREGVAAAIRAVAVEEESSKVFQAKAKKLQEIVADMACHERYIDGFIQQLRSYKD
- denaturation temperature TD [1]: 39 °C
- Kcat ([2]; Lineweaver-Burk plot): 12.1 min⁻¹
- Km ([2]; Lineweaver-Burk plot): 118 µM
- Vmax ([2]; Lineweaver-Burk plot): 0.78 µM/min
- Kcat ([2]; Nonlinear Least Square Fit): 12.32 min⁻¹
- Km ([2]; Nonlinear Least Square Fit): 130 µM
- Vmax ([2]; Nonlinear Least Square Fit): 0.79 µM/min
- amount of RebD produced when RebA was used as the feedstock ([3]; LC-MS chromatograms, FIG. 4): significant amount
- efficiency at converting RebA to RebD compared with UGT91D2e ([3]; in vitro transcribed and translated enzymes, preliminary quantification): approximately 30 times
- efficiency at converting 19-SMG to compound 1 compared with UGT91D2e [4]: about ten
- conversion of RebA to RebD ([5]; extra EUGT11 and UDP-glucose added after 1, 6, 24 and 28 hours): more than 70%
- RebA converted to RebD ([5]; standard conditions for EUGT11): approximately 25%
- activity after pre-incubation ([6]; 30° C., 4 hours): not significantly reduced
- activity remaining after pre-incubation ([6]; 30° C., 24 hours): approximately one-third
- activity remaining after pre-incubation ([6]; 37° C., 1 hour): approximately half
- activity remaining after pre-incubation ([6]; 37° C., 4 hours): almost no activity
- use of steviol as a substrate [7]: not able to use steviol as a substrate
